Experimental data from US20150344570A1 (published 2015).

target: FcγRIIIa extracellular domain with C-terminal His tag (human, UniProt P08637 17-208); assay: SPR (Biacore), both H chains altered; HoCon Ab GpH7-B3/GpL16-k0 = 100
Sequence (P08637 17-208): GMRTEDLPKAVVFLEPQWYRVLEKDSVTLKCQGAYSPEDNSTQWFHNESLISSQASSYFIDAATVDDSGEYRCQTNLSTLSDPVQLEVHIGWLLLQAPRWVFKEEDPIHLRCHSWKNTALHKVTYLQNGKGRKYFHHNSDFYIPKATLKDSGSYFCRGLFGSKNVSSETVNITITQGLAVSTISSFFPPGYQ

| Binder | Ho/Con_3a [%] |
| --- | --- |
| GpH7-B3 variant I336_03V/GpL16-k0 (antibody, human IgG1, kappa, both H chains altered; also called Ho Ab I336_03V) heavy: not shown light: DIVMTQSPLSLPVTPGEPASISCQASESLVHSNRNTYLHWYLQKPGQSPQLLIYKVSNRFSGVPDRFSGSGSGTDFTLKISRVEAEDVGVYYCSQNTHVPPTFGQGTKVEIERTVAAPSVFIFPPSDEQLKSGTASVVCLLNNFYPREAKVQWKVDNALQSGNSQESVTEQDSKDSTYSLSSTLTLSKADYEKHKVYACEVTHQGLSSPVTKSFNRGEC | 110 |
| GpH7-B3 variant I336_18N/GpL16-k0 (antibody, human IgG1, kappa, both H chains altered; also called Ho Ab I336_18N) heavy: not shown light: DIVMTQSPLSLPVTPGEPASISCQASESLVHSNRNTYLHWYLQKPGQSPQLLIYKVSNRFSGVPDRFSGSGSGTDFTLKISRVEAEDVGVYYCSQNTHVPPTFGQGTKVEIERTVAAPSVFIFPPSDEQLKSGTASVVCLLNNFYPREAKVQWKVDNALQSGNSQESVTEQDSKDSTYSLSSTLTLSKADYEKHKVYACEVTHQGLSSPVTKSFNRGEC | 101 |
| GpH7-B3 variant I336_06M/GpL16-k0 (antibody, human IgG1, kappa, both H chains altered; also called Ho Ab I336_06M) heavy: not shown light: DIVMTQSPLSLPVTPGEPASISCQASESLVHSNRNTYLHWYLQKPGQSPQLLIYKVSNRFSGVPDRFSGSGSGTDFTLKISRVEAEDVGVYYCSQNTHVPPTFGQGTKVEIERTVAAPSVFIFPPSDEQLKSGTASVVCLLNNFYPREAKVQWKVDNALQSGNSQESVTEQDSKDSTYSLSSTLTLSKADYEKHKVYACEVTHQGLSSPVTKSFNRGEC | 107 |
| GpH7-B3 variant H268_02A/GpL16-k0 (antibody, human IgG1, kappa, both H chains altered; also called Ho Ab H268_02A) heavy: not shown light: DIVMTQSPLSLPVTPGEPASISCQASESLVHSNRNTYLHWYLQKPGQSPQLLIYKVSNRFSGVPDRFSGSGSGTDFTLKISRVEAEDVGVYYCSQNTHVPPTFGQGTKVEIERTVAAPSVFIFPPSDEQLKSGTASVVCLLNNFYPREAKVQWKVDNALQSGNSQESVTEQDSKDSTYSLSSTLTLSKADYEKHKVYACEVTHQGLSSPVTKSFNRGEC | 118 |
| GpH7-B3 variant I332_01G/GpL16-k0 (antibody, human IgG1, kappa, both H chains altered; also called Ho Ab I332_01G) heavy: not shown light: DIVMTQSPLSLPVTPGEPASISCQASESLVHSNRNTYLHWYLQKPGQSPQLLIYKVSNRFSGVPDRFSGSGSGTDFTLKISRVEAEDVGVYYCSQNTHVPPTFGQGTKVEIERTVAAPSVFIFPPSDEQLKSGTASVVCLLNNFYPREAKVQWKVDNALQSGNSQESVTEQDSKDSTYSLSSTLTLSKADYEKHKVYACEVTHQGLSSPVTKSFNRGEC | 104 |
| GpH7-B3 variant K326_08L/GpL16-k0 (antibody, human IgG1, kappa, both H chains altered; also called Ho Ab K326_08L) heavy: not shown light: DIVMTQSPLSLPVTPGEPASISCQASESLVHSNRNTYLHWYLQKPGQSPQLLIYKVSNRFSGVPDRFSGSGSGTDFTLKISRVEAEDVGVYYCSQNTHVPPTFGQGTKVEIERTVAAPSVFIFPPSDEQLKSGTASVVCLLNNFYPREAKVQWKVDNALQSGNSQESVTEQDSKDSTYSLSSTLTLSKADYEKHKVYACEVTHQGLSSPVTKSFNRGEC | 114 |
| GpH7-B3 variant I336_02A/GpL16-k0 (antibody, human IgG1, kappa, both H chains altered; also called Ho Ab I336_02A) heavy: not shown light: DIVMTQSPLSLPVTPGEPASISCQASESLVHSNRNTYLHWYLQKPGQSPQLLIYKVSNRFSGVPDRFSGSGSGTDFTLKISRVEAEDVGVYYCSQNTHVPPTFGQGTKVEIERTVAAPSVFIFPPSDEQLKSGTASVVCLLNNFYPREAKVQWKVDNALQSGNSQESVTEQDSKDSTYSLSSTLTLSKADYEKHKVYACEVTHQGLSSPVTKSFNRGEC | 104 |
| GpH7-B3 variant E333_09D/GpL16-k0 (antibody, human IgG1, kappa, both H chains altered; also called Ho Ab E333_09D) heavy: not shown light: DIVMTQSPLSLPVTPGEPASISCQASESLVHSNRNTYLHWYLQKPGQSPQLLIYKVSNRFSGVPDRFSGSGSGTDFTLKISRVEAEDVGVYYCSQNTHVPPTFGQGTKVEIERTVAAPSVFIFPPSDEQLKSGTASVVCLLNNFYPREAKVQWKVDNALQSGNSQESVTEQDSKDSTYSLSSTLTLSKADYEKHKVYACEVTHQGLSSPVTKSFNRGEC | 109 |
| GpH7-B3 variant K326_07I/GpL16-k0 (antibody, human IgG1, kappa, both H chains altered; also called Ho Ab K326_07I) heavy: not shown light: DIVMTQSPLSLPVTPGEPASISCQASESLVHSNRNTYLHWYLQKPGQSPQLLIYKVSNRFSGVPDRFSGSGSGTDFTLKISRVEAEDVGVYYCSQNTHVPPTFGQGTKVEIERTVAAPSVFIFPPSDEQLKSGTASVVCLLNNFYPREAKVQWKVDNALQSGNSQESVTEQDSKDSTYSLSSTLTLSKADYEKHKVYACEVTHQGLSSPVTKSFNRGEC | 134 |

Next, values leading:

| Ho/Con_3a [%] | Binder |
| --- | --- |
| 99 | GpH7-B3 variant S337_15Y/GpL16-k0 (antibody, human IgG1, kappa, both H chains altered; also called Ho Ab S337_15Y) heavy: not shown light: DIVMTQSPLSLPVTPGEPASISCQASESLVHSNRNTYLHWYLQKPGQSPQLLIYKVSNRFSGVPDRFSGSGSGTDFTLKISRVEAEDVGVYYCSQNTHVPPTFGQGTKVEIERTVAAPSVFIFPPSDEQLKSGTASVVCLLNNFYPREAKVQWKVDNALQSGNSQESVTEQDSKDSTYSLSSTLTLSKADYEKHKVYACEVTHQGLSSPVTKSFNRGEC |
| 145 | GpH7-B3 variant S267_02A/GpL16-k0 (antibody, human IgG1, kappa, both H chains altered; also called Ho Ab S267_02A) heavy: not shown light: DIVMTQSPLSLPVTPGEPASISCQASESLVHSNRNTYLHWYLQKPGQSPQLLIYKVSNRFSGVPDRFSGSGSGTDFTLKISRVEAEDVGVYYCSQNTHVPPTFGQGTKVEIERTVAAPSVFIFPPSDEQLKSGTASVVCLLNNFYPREAKVQWKVDNALQSGNSQESVTEQDSKDSTYSLSSTLTLSKADYEKHKVYACEVTHQGLSSPVTKSFNRGEC |
| 91.5 | GpH7-B3 variant T335_15Y/GpL16-k0 (antibody, human IgG1, kappa, both H chains altered; also called Ho Ab T335_15Y) heavy: not shown light: DIVMTQSPLSLPVTPGEPASISCQASESLVHSNRNTYLHWYLQKPGQSPQLLIYKVSNRFSGVPDRFSGSGSGTDFTLKISRVEAEDVGVYYCSQNTHVPPTFGQGTKVEIERTVAAPSVFIFPPSDEQLKSGTASVVCLLNNFYPREAKVQWKVDNALQSGNSQESVTEQDSKDSTYSLSSTLTLSKADYEKHKVYACEVTHQGLSSPVTKSFNRGEC |
| 108 | GpH7-B3 variant Q295_14T/GpL16-k0 (antibody, human IgG1, kappa, both H chains altered; also called Ho Ab Q295_14T) heavy: not shown light: DIVMTQSPLSLPVTPGEPASISCQASESLVHSNRNTYLHWYLQKPGQSPQLLIYKVSNRFSGVPDRFSGSGSGTDFTLKISRVEAEDVGVYYCSQNTHVPPTFGQGTKVEIERTVAAPSVFIFPPSDEQLKSGTASVVCLLNNFYPREAKVQWKVDNALQSGNSQESVTEQDSKDSTYSLSSTLTLSKADYEKHKVYACEVTHQGLSSPVTKSFNRGEC |
| 97.6 | GpH7-B3 variant T335_13S/GpL16-k0 (antibody, human IgG1, kappa, both H chains altered; also called Ho Ab T335_13S) heavy: not shown light: DIVMTQSPLSLPVTPGEPASISCQASESLVHSNRNTYLHWYLQKPGQSPQLLIYKVSNRFSGVPDRFSGSGSGTDFTLKISRVEAEDVGVYYCSQNTHVPPTFGQGTKVEIERTVAAPSVFIFPPSDEQLKSGTASVVCLLNNFYPREAKVQWKVDNALQSGNSQESVTEQDSKDSTYSLSSTLTLSKADYEKHKVYACEVTHQGLSSPVTKSFNRGEC |
| 150 | GpH7-B3 variant K334_09D/GpL16-k0 (antibody, human IgG1, kappa, both H chains altered; also called Ho Ab K334_09D) heavy: not shown light: DIVMTQSPLSLPVTPGEPASISCQASESLVHSNRNTYLHWYLQKPGQSPQLLIYKVSNRFSGVPDRFSGSGSGTDFTLKISRVEAEDVGVYYCSQNTHVPPTFGQGTKVEIERTVAAPSVFIFPPSDEQLKSGTASVVCLLNNFYPREAKVQWKVDNALQSGNSQESVTEQDSKDSTYSLSSTLTLSKADYEKHKVYACEVTHQGLSSPVTKSFNRGEC |
| 87.8 | GpH7-B3 variant S337_20W/GpL16-k0 (antibody, human IgG1, kappa, both H chains altered; also called Ho Ab S337_20W) heavy: not shown light: DIVMTQSPLSLPVTPGEPASISCQASESLVHSNRNTYLHWYLQKPGQSPQLLIYKVSNRFSGVPDRFSGSGSGTDFTLKISRVEAEDVGVYYCSQNTHVPPTFGQGTKVEIERTVAAPSVFIFPPSDEQLKSGTASVVCLLNNFYPREAKVQWKVDNALQSGNSQESVTEQDSKDSTYSLSSTLTLSKADYEKHKVYACEVTHQGLSSPVTKSFNRGEC |
| 99.5 | GpH7-B3 variant T335_16H/GpL16-k0 (antibody, human IgG1, kappa, both H chains altered; also called Ho Ab T335_16H) heavy: not shown light: DIVMTQSPLSLPVTPGEPASISCQASESLVHSNRNTYLHWYLQKPGQSPQLLIYKVSNRFSGVPDRFSGSGSGTDFTLKISRVEAEDVGVYYCSQNTHVPPTFGQGTKVEIERTVAAPSVFIFPPSDEQLKSGTASVVCLLNNFYPREAKVQWKVDNALQSGNSQESVTEQDSKDSTYSLSSTLTLSKADYEKHKVYACEVTHQGLSSPVTKSFNRGEC |
| 160 | GpH7-B3 variant S267_09D/GpL16-k0 (antibody, human IgG1, kappa, both H chains altered; also called Ho Ab S267_09D) heavy: not shown light: DIVMTQSPLSLPVTPGEPASISCQASESLVHSNRNTYLHWYLQKPGQSPQLLIYKVSNRFSGVPDRFSGSGSGTDFTLKISRVEAEDVGVYYCSQNTHVPPTFGQGTKVEIERTVAAPSVFIFPPSDEQLKSGTASVVCLLNNFYPREAKVQWKVDNALQSGNSQESVTEQDSKDSTYSLSSTLTLSKADYEKHKVYACEVTHQGLSSPVTKSFNRGEC |
| 97.7 | GpH7-B3 variant T335_19Q/GpL16-k0 (antibody, human IgG1, kappa, both H chains altered; also called Ho Ab T335_19Q) heavy: not shown light: DIVMTQSPLSLPVTPGEPASISCQASESLVHSNRNTYLHWYLQKPGQSPQLLIYKVSNRFSGVPDRFSGSGSGTDFTLKISRVEAEDVGVYYCSQNTHVPPTFGQGTKVEIERTVAAPSVFIFPPSDEQLKSGTASVVCLLNNFYPREAKVQWKVDNALQSGNSQESVTEQDSKDSTYSLSSTLTLSKADYEKHKVYACEVTHQGLSSPVTKSFNRGEC |
| 91.8 | GpH7-B3 variant T335_20W/GpL16-k0 (antibody, human IgG1, kappa, both H chains altered; also called Ho Ab T335_20W) heavy: not shown light: DIVMTQSPLSLPVTPGEPASISCQASESLVHSNRNTYLHWYLQKPGQSPQLLIYKVSNRFSGVPDRFSGSGSGTDFTLKISRVEAEDVGVYYCSQNTHVPPTFGQGTKVEIERTVAAPSVFIFPPSDEQLKSGTASVVCLLNNFYPREAKVQWKVDNALQSGNSQESVTEQDSKDSTYSLSSTLTLSKADYEKHKVYACEVTHQGLSSPVTKSFNRGEC |
| 104 | GpH7-B3 variant K334_01G/GpL16-k0 (antibody, human IgG1, kappa, both H chains altered; also called Ho Ab K334_01G) heavy: not shown light: DIVMTQSPLSLPVTPGEPASISCQASESLVHSNRNTYLHWYLQKPGQSPQLLIYKVSNRFSGVPDRFSGSGSGTDFTLKISRVEAEDVGVYYCSQNTHVPPTFGQGTKVEIERTVAAPSVFIFPPSDEQLKSGTASVVCLLNNFYPREAKVQWKVDNALQSGNSQESVTEQDSKDSTYSLSSTLTLSKADYEKHKVYACEVTHQGLSSPVTKSFNRGEC |
| 90.5 | GpH7-B3 variant V266_08L/GpL16-k0 (antibody, human IgG1, kappa, both H chains altered; also called Ho Ab V266_08L) heavy: not shown light: DIVMTQSPLSLPVTPGEPASISCQASESLVHSNRNTYLHWYLQKPGQSPQLLIYKVSNRFSGVPDRFSGSGSGTDFTLKISRVEAEDVGVYYCSQNTHVPPTFGQGTKVEIERTVAAPSVFIFPPSDEQLKSGTASVVCLLNNFYPREAKVQWKVDNALQSGNSQESVTEQDSKDSTYSLSSTLTLSKADYEKHKVYACEVTHQGLSSPVTKSFNRGEC |
